Experimental data as given in IntAct's records for PubMed 24656813.

B1: Telomere length regulation protein TEL2 homolog (Homo sapiens), Q9Y4R8 (parent)
chain: MEPAPSEVRLAVREAIHALSSSEDGGHIFCTLESLKRYLGEMEPPALPREKEEFASAHFSPVLRCLASRLSPAWLELLPHGRLEELWASFFLEGPADQAFLVLMETIEGAAGPSFRLMKMARLLARFLREGRLAVLMEAQCRQQTQPGFILLRETLLGKVVALPDHLGNRLQQENLAEFFPQNYFRLLGEEVVRVLQAVVDSLQGGLDSSVSFVSQVLGKACVHGRQQEILGVLVPRLAALTQGSYLHQRVCWRLVEQVPDRAMEAVLTGLVEAALGPEVLSRLLGNLVVKNKKAQFVMTQKLLFLQSRLTTPMLQSLLGHLAMDSQRRPLLLQVLKELLETWGSSSAIRHTPLPQQRHVSKAVLICLAQLGEPELRDSRDELLASMMAGVKCRLDSSLPPVRRLGMIVAEVVSARIHPEGPPLKFQYEEDELSLELLALASPQPAGDGASEAGTSLVPATAEPPAETPAEIVDGGVPQAQLAGSDSDLDSDDEFVPYDMSGDRELKSSKAPAYVRDCVEALTTSEDIERWEAALRALEGLVYRSPTATREVSVELAKVLLHLEEKTCVVGFAGLRQRALVAVTVTDPAPVADYLTSQFYALNYSLRQRMDILDVLTLAAQELSRPGCLGRTPQPGSPSPNTPCLPEAAVSQPGSAVASDWRVVVEERIRSKTQRLSKGGPRQGPAGSPSRFNSVAGHFFFPLLQRFDRPLVTFDLLGEDQLVLGRLAHTLGALMCLAVNTTVAVAMGKALLEFVWALRFHIDAYVRQGLLSAVSSVLLSLPAARLLEDLMDELLEARSWLADVAEKDPDEDCRTLALRALLLLQRLKNRLLPPASP

Variants of: B1
Conditions: with pihd1_human PIH1D1, Q9NWS0
pihd1_human PIH1D1, Q9NWS0, sequence (Q9NWS0 whole entry): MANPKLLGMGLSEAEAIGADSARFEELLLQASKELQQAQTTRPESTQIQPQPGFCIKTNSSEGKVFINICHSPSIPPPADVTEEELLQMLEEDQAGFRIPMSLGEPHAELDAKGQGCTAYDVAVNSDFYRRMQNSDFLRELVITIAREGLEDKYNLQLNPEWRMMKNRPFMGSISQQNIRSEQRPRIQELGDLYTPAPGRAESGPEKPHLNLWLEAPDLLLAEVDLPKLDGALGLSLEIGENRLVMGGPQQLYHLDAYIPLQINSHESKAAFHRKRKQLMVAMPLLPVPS

| Variant | effect of a mutation on the interaction |
| --- | --- |
| D492A | disrupting interaction strength |
| D490A | disrupting interaction strength |
| D493A | disrupting interaction strength |

Variants of: B1
Conditions: with pihd1_human PIH1D1, Q9NWS0
Remark: another data set of the same source

| Variant | effect of a mutation on the interaction |
| --- | --- |
| D492A;D493A | disrupting interaction strength |
